In the experiment the target is B.1.1.529 (BA.1) S1 + S2 Trimer-His Recombinant Protein (SARS-CoV-2) (UniProt P0DTC2). Put plainly: cryo-EM structure.

Take “B.1.1.529 (BA.1) S1 + S2 Trimer-His Recombinant Protein (from UniProt P0DTC2 324-533) (natural protein)”: the stoichiometry N stood at 3.

For orientation: stoichiometry N means a count of units in the complex or per binding partner.

For the origin of these results see paper doi:10.1101/2023.01.20.524748.
